Changes are numbered by the printed parent chain. Names and notes keep the numbering of the source.
T1: GST-BAP1 (full length) (human, UniProt Q92560 1-729)
T1 sequence (looked up): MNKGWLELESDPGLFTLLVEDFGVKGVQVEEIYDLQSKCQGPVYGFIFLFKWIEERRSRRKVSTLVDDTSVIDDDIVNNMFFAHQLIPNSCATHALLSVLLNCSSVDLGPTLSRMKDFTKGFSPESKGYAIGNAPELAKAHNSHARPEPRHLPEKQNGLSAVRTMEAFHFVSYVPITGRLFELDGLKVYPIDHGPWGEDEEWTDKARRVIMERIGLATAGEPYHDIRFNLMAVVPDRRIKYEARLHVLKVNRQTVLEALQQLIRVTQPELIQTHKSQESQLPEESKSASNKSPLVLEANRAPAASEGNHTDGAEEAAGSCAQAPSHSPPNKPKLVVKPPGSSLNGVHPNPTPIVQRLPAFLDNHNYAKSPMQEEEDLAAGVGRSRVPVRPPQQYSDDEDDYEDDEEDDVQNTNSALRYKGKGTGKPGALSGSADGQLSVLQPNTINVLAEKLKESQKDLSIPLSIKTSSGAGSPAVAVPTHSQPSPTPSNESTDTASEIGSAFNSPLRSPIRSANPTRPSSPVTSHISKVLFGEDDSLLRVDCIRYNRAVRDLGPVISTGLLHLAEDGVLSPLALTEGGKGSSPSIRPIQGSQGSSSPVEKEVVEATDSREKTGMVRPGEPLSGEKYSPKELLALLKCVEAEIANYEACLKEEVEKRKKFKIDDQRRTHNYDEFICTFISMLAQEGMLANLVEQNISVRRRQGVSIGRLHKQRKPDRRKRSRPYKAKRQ

T2: His-BAP1-FL ∆E283-S285 (baculovirus) (human, UniProt Q92560 1-729, ∆E283-S285)
T2 sequence (looked up): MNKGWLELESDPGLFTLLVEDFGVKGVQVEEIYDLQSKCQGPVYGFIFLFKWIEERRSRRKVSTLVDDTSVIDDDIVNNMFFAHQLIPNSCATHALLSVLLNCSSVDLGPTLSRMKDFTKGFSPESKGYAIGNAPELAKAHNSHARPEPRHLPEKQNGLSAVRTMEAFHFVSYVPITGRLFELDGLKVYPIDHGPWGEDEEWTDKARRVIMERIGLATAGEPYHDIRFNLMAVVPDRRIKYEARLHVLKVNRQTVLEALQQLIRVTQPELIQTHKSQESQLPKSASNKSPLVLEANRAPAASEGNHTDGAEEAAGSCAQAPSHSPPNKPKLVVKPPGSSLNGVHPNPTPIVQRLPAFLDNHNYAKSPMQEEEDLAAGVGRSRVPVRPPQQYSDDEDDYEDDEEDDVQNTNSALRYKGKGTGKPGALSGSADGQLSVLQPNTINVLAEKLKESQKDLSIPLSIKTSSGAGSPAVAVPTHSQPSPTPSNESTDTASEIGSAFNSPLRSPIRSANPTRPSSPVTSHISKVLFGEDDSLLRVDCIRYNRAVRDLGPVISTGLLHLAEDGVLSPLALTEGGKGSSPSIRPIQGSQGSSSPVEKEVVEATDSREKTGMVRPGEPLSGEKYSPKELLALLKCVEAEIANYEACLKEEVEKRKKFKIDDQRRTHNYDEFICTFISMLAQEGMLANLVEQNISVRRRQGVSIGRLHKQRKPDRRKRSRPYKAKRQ

T3: GST-BAP1-UCH (1–250 aa) (human, UniProt Q92560 1-250)
T3 sequence (looked up): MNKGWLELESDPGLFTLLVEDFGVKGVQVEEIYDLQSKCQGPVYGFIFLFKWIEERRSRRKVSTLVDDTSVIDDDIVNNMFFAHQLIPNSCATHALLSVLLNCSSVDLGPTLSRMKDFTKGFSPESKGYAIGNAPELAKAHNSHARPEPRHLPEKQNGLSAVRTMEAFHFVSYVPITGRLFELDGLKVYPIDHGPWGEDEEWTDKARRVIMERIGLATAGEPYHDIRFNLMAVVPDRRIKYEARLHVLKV

T4: GST-BAP1-ULD (human, UniProt Q92560 601-729)
T4 sequence (looked up): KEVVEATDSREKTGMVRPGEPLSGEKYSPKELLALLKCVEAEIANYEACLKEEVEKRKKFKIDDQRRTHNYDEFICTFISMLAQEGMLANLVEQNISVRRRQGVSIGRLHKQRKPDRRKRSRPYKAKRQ

B1: Flag-ASXL2 (261–649 aa) (baculovirus) (domain or fragment, human, UniProt Q76L83 261-649, looked up)
chain: MKRTKCADIDVETPDSILVNTNLRALINKHTFSVLPGDCQQRLLLLLPEVDRQVGPDGLMKLNGSALNNEFFTSAAQGWKERLSEGEFTPEMQVRIRQEIEKEKKVEPWKEQFFESYYGQSSGLSLEDSKKLTASPSDPKVKKTPAEQPKSMPVSEASLIRIVPVVSQSECKEEALQMSSPGRKEECESQGEVQPNFSTSSEPLLSSALNTHELSSILPIKCPKDEDLLEQKPVTSAEQESEKNHLTTASNYNKSESQESLVTSPSKPKSPGVEKPIVKPTAGAGPQETNMKEPLATLVDQSPESLKRKSSLTQEEAPVSWEKRPRVTENRQHQQPFQVSPQPFLNRGDRIQVRKVPPLKIPVSRISPMPFHPSQVSPRARFPVSITSP
B2: His-BAP1-ULD (601–729) WT (domain or fragment, human, UniProt Q92560 601-729, looked up)
chain: T4 sequence (looked up)
B3: His-BAP1-ULD F660P (domain or fragment, human, UniProt Q92560 601-729, looked up)
chain: T4 sequence (looked up) with F60P
B4: His-BAP1-ULD L650P (domain or fragment, human, UniProt Q92560 601-729, looked up)
chain: T4 sequence (looked up) with L50P
B5: His-BAP1-ULD ∆K637-C638 (sub of N) (domain or fragment, human, UniProt Q92560 601-729, looked up)
chain: KEVVEATDSREKTGMVRPGEPLSGEKYSPKELLALLNVEAEIANYEACLKEEVEKRKKFKIDDQRRTHNYDEFICTFISMLAQEGMLANLVEQNISVRRRQGVSIGRLHKQRKPDRRKRSRPYKAKRQ
B6: His-ASXL2-AB (261–381 aa) (domain or fragment, human, UniProt Q76L83 261-381, looked up)
chain: MKRTKCADIDVETPDSILVNTNLRALINKHTFSVLPGDCQQRLLLLLPEVDRQVGPDGLMKLNGSALNNEFFTSAAQGWKERLSEGEFTPEMQVRIRQEIEKEKKVEPWKEQFFESYYGQS

Tests used:
GST-BAP1 (full length) = molecular target: T1, GST-BAP1 (full length); test: pull-down
[1] = molecular target: T2, His-BAP1-FL ∆E283-S285 (baculovirus); test: co-IP
GST-BAP1-UCH (1–250 aa) = molecular target: T3, GST-BAP1-UCH (1–250 aa); test: pull-down
GST-BAP1-ULD = molecular target: T4, GST-BAP1-ULD; test: pull-down
[2] = molecular target: B2; test: pull-down

B1: binds (GST-BAP1 (full length)); binds [1].

B2: binds (GST-BAP1-UCH (1–250 aa)).

B3: binds (GST-BAP1-UCH (1–250 aa)).

B4: binds (GST-BAP1-UCH (1–250 aa)).

B5: binds (GST-BAP1-UCH (1–250 aa)).

B6: binds (GST-BAP1-ULD); binds [2]; binds (GST-BAP1 (full length)).
